Key:
[1] = molecular target: Human 4-1BB/TNFRSF9 Protein, His Tag (ACRO Biosystems) (human) (UniProt Q07011); test: ELISA, coated 4-1BB-his, scFv clone supernatant
[2] = molecular target: T1, Human 4-1BB/TNFRSF9 Protein, His Tag (ACRO Biosystems) (human, UniProt Q07011 24-186); test: ELISA, coated Human 4-1BB His Tag 1 ug/ml, antibody from 10 ug/ml in two-fold dilutions
T1 construct: Bought from ACRO Biosystems; also called 4-1BB-his; not shown: His tag
T1 sequence (Q07011 24-186 limits assumed): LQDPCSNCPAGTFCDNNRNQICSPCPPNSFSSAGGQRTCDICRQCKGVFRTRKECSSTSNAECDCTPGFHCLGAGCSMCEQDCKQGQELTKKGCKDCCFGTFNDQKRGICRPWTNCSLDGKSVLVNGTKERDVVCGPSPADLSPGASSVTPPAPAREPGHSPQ

OD450 [1]	EC50 [2] [µg/mL]	Binder
1.12		GT1C8 (scFv克隆, 初筛离心上清) (scFv, V domains shown) VH: QMQLQESGPSLVKPSQTLSLTCSVTGDSITSGYWTWIRKFPGNRLEYMGFKSYSGSTYYNPSLKSRISITRDTSKNQYYLQLNSVTTEDTATYYCARSLLWLGAMDYWGQGTSVTVSS VL: DIVMTQSHKFMSTSVGDRVSITCKASQDVGTAVAWYQQKPGQSPKLLIYWASTRHTGVPDRFTGSGSGTDFTLTISNVQSEDLADYFCQQYSSYPYTFGGGTKLEMKR
	0.102	GT1C8 huIgG1型抗体 (antibody, V domains shown, GT1C8 is the only antibody described, but the name GT1C8 is never tied to these numbers in words; also called GT1C8的huIgG1抗体; GT1C8克隆hIgG1形式抗体) VH: QMQLQESGPSLVKPSQTLSLTCSVTGDSITSGYWTWIRKFPGNRLEYMGFKSYSGSTYYNPSLKSRISITRDTSKNQYYLQLNSVTTEDTATYYCARSLLWLGAMDYWGQGTSVTVSS VL: DIVMTQSHKFMSTSVGDRVSITCKASQDVGTAVAWYQQKPGQSPKLLIYWASTRHTGVPDRFTGSGSGTDFTLTISNVQSEDLADYFCQQYSSYPYTFGGGTKLEMKR
